Laboratory results as given in paper PMC7994445.

What was measured:
[1] = target: PfActin-1 filaments (Plasmodium falciparum) (UniProt Q8I4X0)
[2] = target: rabbit skeletal actin filaments (rabbit) (UniProt P68135)
[3] = target: smooth muscle actin filaments (UniProt P62736)

Chain of Full-length phosphorylated smooth muscle myosin (P10587 whole entry, looked up): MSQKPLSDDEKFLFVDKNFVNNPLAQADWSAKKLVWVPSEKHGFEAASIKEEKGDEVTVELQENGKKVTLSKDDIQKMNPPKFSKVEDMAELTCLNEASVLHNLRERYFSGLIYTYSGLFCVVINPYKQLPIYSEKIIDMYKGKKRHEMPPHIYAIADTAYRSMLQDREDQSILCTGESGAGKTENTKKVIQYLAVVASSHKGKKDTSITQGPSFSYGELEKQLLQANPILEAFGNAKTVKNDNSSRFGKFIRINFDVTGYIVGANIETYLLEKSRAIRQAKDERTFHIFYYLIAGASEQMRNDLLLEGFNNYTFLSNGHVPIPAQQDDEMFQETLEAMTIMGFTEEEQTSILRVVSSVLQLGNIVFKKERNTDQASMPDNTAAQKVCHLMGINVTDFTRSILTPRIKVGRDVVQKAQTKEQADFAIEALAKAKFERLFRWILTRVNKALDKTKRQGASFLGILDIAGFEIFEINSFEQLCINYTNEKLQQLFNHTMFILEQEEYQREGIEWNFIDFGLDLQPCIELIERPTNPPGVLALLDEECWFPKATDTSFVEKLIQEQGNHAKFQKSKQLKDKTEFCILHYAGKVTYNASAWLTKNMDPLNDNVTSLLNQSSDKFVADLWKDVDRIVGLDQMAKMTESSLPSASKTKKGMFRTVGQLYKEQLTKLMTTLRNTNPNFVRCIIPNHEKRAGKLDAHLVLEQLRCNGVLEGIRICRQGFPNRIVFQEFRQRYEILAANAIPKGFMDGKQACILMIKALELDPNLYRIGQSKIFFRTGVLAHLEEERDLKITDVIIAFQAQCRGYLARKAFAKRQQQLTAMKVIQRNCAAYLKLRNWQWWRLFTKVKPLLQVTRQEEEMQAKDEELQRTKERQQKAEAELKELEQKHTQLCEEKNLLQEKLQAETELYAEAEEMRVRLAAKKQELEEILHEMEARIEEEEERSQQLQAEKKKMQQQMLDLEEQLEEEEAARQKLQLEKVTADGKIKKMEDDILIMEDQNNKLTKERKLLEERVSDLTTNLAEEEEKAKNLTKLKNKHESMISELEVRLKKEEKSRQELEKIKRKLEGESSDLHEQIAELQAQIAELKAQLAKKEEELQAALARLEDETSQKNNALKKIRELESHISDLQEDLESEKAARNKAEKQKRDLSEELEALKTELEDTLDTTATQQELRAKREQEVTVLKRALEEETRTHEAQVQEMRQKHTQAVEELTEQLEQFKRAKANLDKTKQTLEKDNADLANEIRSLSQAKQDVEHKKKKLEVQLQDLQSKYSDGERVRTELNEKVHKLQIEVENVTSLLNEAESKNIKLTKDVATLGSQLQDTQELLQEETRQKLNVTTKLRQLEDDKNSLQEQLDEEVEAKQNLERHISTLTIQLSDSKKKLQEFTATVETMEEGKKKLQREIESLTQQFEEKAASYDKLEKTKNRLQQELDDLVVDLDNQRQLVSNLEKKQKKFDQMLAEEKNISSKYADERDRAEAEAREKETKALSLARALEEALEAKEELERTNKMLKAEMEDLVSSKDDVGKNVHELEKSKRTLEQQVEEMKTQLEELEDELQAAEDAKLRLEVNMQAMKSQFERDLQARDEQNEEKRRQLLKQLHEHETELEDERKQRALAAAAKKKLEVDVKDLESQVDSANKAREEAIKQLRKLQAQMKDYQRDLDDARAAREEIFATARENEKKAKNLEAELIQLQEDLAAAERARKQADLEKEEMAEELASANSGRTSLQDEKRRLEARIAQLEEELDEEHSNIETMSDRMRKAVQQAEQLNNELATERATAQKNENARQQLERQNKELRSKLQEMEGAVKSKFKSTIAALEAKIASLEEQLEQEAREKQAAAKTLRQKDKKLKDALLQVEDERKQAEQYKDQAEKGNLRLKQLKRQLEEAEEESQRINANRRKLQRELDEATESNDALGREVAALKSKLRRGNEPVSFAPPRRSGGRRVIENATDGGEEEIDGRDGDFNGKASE

| Substance | in vitro motility speed, JAS-stabilized PfAct1 filaments moved by myosin adhered to the coverslip, 30 °C [1] | in vitro motility speed, skeletal muscle actin filaments moved by myosin adhered to the coverslip, 30 °C [2] | in vitro motility speed, smooth muscle actin filaments moved by myosin adhered to the coverslip, 30 °C [3] | in vitro motility speed, JAS-stabilized PfAct1 filaments moved by myosin held on the coverslip, 30 °C [1] | in vitro motility speed, unstabilized PfAct1 filaments (no JAS) moved by myosin held on the coverslip, 30 °C [1] | in vitro motility speed, skeletal muscle actin filaments moved by myosin held on the coverslip, 30 °C [2] | in vitro motility speed, smooth muscle actin filaments moved by myosin held on the coverslip, 30 °C [3] |
| --- | --- | --- | --- | --- | --- | --- | --- |
| Full-length phosphorylated smooth muscle myosin (from UniProt P10587 1-1979) (complex) | 0.53 µm/s | 0.62 µm/s | 0.51 µm/s |  |  |  |  |
| PfMyoA with a C-terminal biotin tag (from UniProt Q8IDR3 1-818) (complex) |  |  |  | 3.55 µm/s | 3.98 µm/s | 3.85 µm/s | 4.21 µm/s |
